Reference: the supplement of paper PMC9112550, “Optimization of the antimicrobial peptide Bac7 by deep mutational scanning” (BMC Biology, 2022)

Test system: Escherichia coli TOP10
Assay: shrunken log2 fold change of peptide-encoding DNA abundance (4.5 h post-induction vs induction); higher = less antimicrobial activity (less host growth inhibition)
Settings: time post-induction: 4.5 h; library: site-saturation at positions 5, 18, 19, 20
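Note: peptides expressed intracellularly from a pBAD plasmid library in pooled LB shake-flask culture, induced with 0.3% L-arabinose, DNA abundance read by NGS, three biological replicates, DESeq2 with apeglm shrinkage.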

| Sequence | shrunken log2 fold change |
| --- | --- |
| RRIRDRPPRLPRPRPRPTEFPRP | -0.0306 |
| RRIRNRPPRLPRPRPRPTIRPRP | -0.0347 |
| RRIRERPPRLPRPRPRPNYQPRP | -0.812 |
| RRIRCRPPRLPRPRPRPSVHPRP | -0.575 |
| RRIRKRPPRLPRPRPRPQVSPRP | -0.0595 |
| RRIRQRPPRLPRPRPRPSVLPRP | -0.0352 |
| RRIRDRPPRLPRPRPRPNEDPRP | 0.00355 |
| RRIRCRPPRLPRPRPRPNKYPRP | -0.324 |
| RRIRWRPPRLPRPRPRPRPWPRP | 0.289 |
| RRIRGRPPRLPRPRPRPVQDPRP | 0.197 |
| RRIRIRPPRLPRPRPRPQYIPRP | -0.181 |
| RRIRARPPRLPRPRPRPSLYPRP | 0.0269 |
| RRIRERPPRLPRPRPRPTFKPRP | -0.313 |
| RRIRPRPPRLPRPRPRPYYGPRP | -0.271 |
| RRIRVRPPRLPRPRPRPYEFPRP | 2.15 |
| RRIRWRPPRLPRPRPRPEPAPRP | 1.18 |
| RRIRARPPRLPRPRPRPGQPPRP | 0.00358 |
| RRIRVRPPRLPRPRPRPTQEPRP | 0.124 |
| RRIRYRPPRLPRPRPRPHLNPRP | -1.15 |
| RRIRARPPRLPRPRPRPTQMPRP | 0.563 |
| RRIRNRPPRLPRPRPRPMSCPRP | -0.0294 |
| RRIRGRPPRLPRPRPRPDWFPRP | 0.448 |
| RRIRQRPPRLPRPRPRPQRKPRP | -0.058 |
| RRIRPRPPRLPRPRPRPSMNPRP | -0.522 |
| RRIRVRPPRLPRPRPRPCMCPRP | 0.00286 |

| Sequence | shrunken log2 fold change |
| --- | --- |
| RRIRSRPPRLPRPRPRPRDWPRP | 0.4 |
| RRIRPRPPRLPRPRPRPVSMPRP | 1.41 |
| RRIRERPPRLPRPRPRPPKHPRP | -0.0654 |
| RRIRWRPPRLPRPRPRPALEPRP | 0.939 |
| RRIRTRPPRLPRPRPRPMNYPRP | -0.949 |
| RRIRHRPPRLPRPRPRPMWGPRP | -0.234 |
| RRIRWRPPRLPRPRPRPQDMPRP | -0.199 |
| RRIRKRPPRLPRPRPRPDVHPRP | -0.00151 |
| RRIRIRPPRLPRPRPRPYTCPRP | -0.0187 |
| RRIRWRPPRLPRPRPRPNRVPRP | -0.0395 |
| RRIRGRPPRLPRPRPRPHNSPRP | -0.0747 |
| RRIRCRPPRLPRPRPRPDTSPRP | -0.365 |
| RRIRYRPPRLPRPRPRPCKHPRP | -0.0625 |
| RRIRTRPPRLPRPRPRPWRLPRP | -0.127 |
| RRIRVRPPRLPRPRPRPYHMPRP | -0.305 |
| RRIRDRPPRLPRPRPRPPKTPRP | 0.257 |
| RRIRSRPPRLPRPRPRPTIGPRP | 0.0365 |
| RRIRERPPRLPRPRPRPCWEPRP | -0.0225 |
| RRIRVRPPRLPRPRPRPQIWPRP | -0.192 |
| RRIRWRPPRLPRPRPRPVAFPRP | 0.313 |
| RRIRQRPPRLPRPRPRPIGCPRP | 0.0253 |
| RRIRHRPPRLPRPRPRPHTCPRP | -0.141 |
| RRIRWRPPRLPRPRPRPTIPPRP | -0.109 |
| RRIRHRPPRLPRPRPRPRTWPRP | 0.207 |
| RRIRTRPPRLPRPRPRPNGCPRP | 0.0101 |

| Sequence | shrunken log2 fold change |
| --- | --- |
| RRIRWRPPRLPRPRPRPSLFPRP | 0.114 |
| RRIRARPPRLPRPRPRPQLHPRP | 0.054 |
| RRIRDRPPRLPRPRPRPNIQPRP | -0.0288 |
| RRIRWRPPRLPRPRPRPHTAPRP | -0.0505 |
| RRIRWRPPRLPRPRPRPNYRPRP | -0.034 |
| RRIRSRPPRLPRPRPRPAFNPRP | 0.0949 |
| RRIRDRPPRLPRPRPRPREKPRP | 0.342 |
| RRIRVRPPRLPRPRPRPCHCPRP | -0.373 |
| RRIRVRPPRLPRPRPRPSANPRP | 0.122 |
| RRIRCRPPRLPRPRPRPWVTPRP | -0.652 |
| RRIRARPPRLPRPRPRPWPVPRP | 0.558 |
| RRIRNRPPRLPRPRPRPHNCPRP | -0.0167 |
| RRIRGRPPRLPRPRPRPPIKPRP | 0.403 |
| RRIRPRPPRLPRPRPRPENTPRP | 0.11 |
| RRIRHRPPRLPRPRPRPAYYPRP | -0.624 |
| RRIRARPPRLPRPRPRPHGDPRP | 0.362 |
| RRIRCRPPRLPRPRPRPEYLPRP | -0.258 |
| RRIRSRPPRLPRPRPRPGFRPRP | 0.165 |
| RRIRRRPPRLPRPRPRPTLPPRP | 0.482 |
| RRIRSRPPRLPRPRPRPKVAPRP | 0.509 |
| RRIRTRPPRLPRPRPRPSGCPRP | -0.375 |
| RRIRCRPPRLPRPRPRPAQCPRP | -0.113 |
| RRIRSRPPRLPRPRPRPACFPRP | 1.54 |
| RRIRHRPPRLPRPRPRPQIMPRP | -0.682 |
| RRIRPRPPRLPRPRPRPSCPPRP | -0.123 |

| Sequence | shrunken log2 fold change |
| --- | --- |
| RRIRPRPPRLPRPRPRPNQQPRP | 0.0352 |
| RRIRARPPRLPRPRPRPRSQPRP | 0.00929 |
| RRIRCRPPRLPRPRPRPDSDPRP | -0.0612 |
| RRIRKRPPRLPRPRPRPFGQPRP | 0.783 |
| RRIRARPPRLPRPRPRPQHHPRP | -0.298 |
| RRIRHRPPRLPRPRPRPLHTPRP | 0.143 |
| RRIRMRPPRLPRPRPRPAKVPRP | 0.303 |
| RRIRFRPPRLPRPRPRPSCDPRP | -0.314 |
| RRIRARPPRLPRPRPRPDADPRP | 1.63 |
| RRIRMRPPRLPRPRPRPELNPRP | 0.0722 |
| RRIRCRPPRLPRPRPRPWYRPRP | -0.705 |
| RRIRERPPRLPRPRPRPGSVPRP | 0.00838 |
| RRIRHRPPRLPRPRPRPNDPPRP | -0.246 |
| RRIRRRPPRLPRPRPRPSRAPRP | 0.369 |
| RRIRDRPPRLPRPRPRPFTMPRP | -0.0235 |
| RRIRWRPPRLPRPRPRPQLLPRP | 0.115 |
| RRIRPRPPRLPRPRPRPDRNPRP | -0.0925 |
| RRIRNRPPRLPRPRPRPQMPPRP | -0.334 |
| RRIRRRPPRLPRPRPRPLTQPRP | 0.342 |
| RRIRRRPPRLPRPRPRPMTNPRP | -0.00301 |
| RRIRPRPPRLPRPRPRPDPGPRP | 0.0845 |
| RRIRMRPPRLPRPRPRPGYDPRP | 0.0865 |
| RRIRQRPPRLPRPRPRPHTCPRP | -0.325 |
| RRIRQRPPRLPRPRPRPLGMPRP | -0.218 |
| RRIRGRPPRLPRPRPRPHHNPRP | -0.372 |

| Sequence | shrunken log2 fold change |
| --- | --- |
| RRIRQRPPRLPRPRPRPAQMPRP | -0.15 |
| RRIRCRPPRLPRPRPRPMHNPRP | -0.293 |
| RRIRMRPPRLPRPRPRPWMRPRP | 0.7 |
| RRIRSRPPRLPRPRPRPMEHPRP | -0.122 |
| RRIRYRPPRLPRPRPRPGMPPRP | -0.403 |
| RRIRARPPRLPRPRPRPCKQPRP | -0.0572 |
| RRIRYRPPRLPRPRPRPGAQPRP | -0.0279 |
| RRIRCRPPRLPRPRPRPTYWPRP | -0.113 |
| RRIRMRPPRLPRPRPRPYWIPRP | -0.157 |
| RRIRERPPRLPRPRPRPSWGPRP | -0.102 |
| RRIRRRPPRLPRPRPRPTHEPRP | 0.338 |
| RRIRDRPPRLPRPRPRPCRCPRP | 0.0101 |
| RRIRIRPPRLPRPRPRPNNSPRP | -0.655 |
| RRIRNRPPRLPRPRPRPMAKPRP | 0.0197 |
| RRIRKRPPRLPRPRPRPFHPPRP | -0.158 |
| RRIRTRPPRLPRPRPRPQHVPRP | -0.0575 |
| RRIRFRPPRLPRPRPRPAPIPRP | 0.108 |
| RRIRKRPPRLPRPRPRPLQYPRP | -0.0563 |
| RRIRYRPPRLPRPRPRPDEQPRP | -0.00172 |
| RRIRYRPPRLPRPRPRPRNQPRP | -0.32 |
| RRIRLRPPRLPRPRPRPYWWPRP | 0.0346 |
| RRIRERPPRLPRPRPRPIKHPRP | -0.967 |
| RRIRGRPPRLPRPRPRPNSNPRP | 0.0841 |
| RRIRWRPPRLPRPRPRPLEMPRP | 0.373 |
| RRIRDRPPRLPRPRPRPGDGPRP | 0.85 |

| Sequence | shrunken log2 fold change |
| --- | --- |
| RRIRVRPPRLPRPRPRPWDRPRP | 0.0372 |
| RRIRERPPRLPRPRPRPPTLPRP | 0.162 |
| RRIRNRPPRLPRPRPRPNLRPRP | -0.325 |
| RRIRIRPPRLPRPRPRPGDKPRP | -0.218 |
| RRIRLRPPRLPRPRPRPWIPPRP | -0.0167 |
| RRIRLRPPRLPRPRPRPAWPPRP | 0.42 |
| RRIRERPPRLPRPRPRPKKVPRP | -0.178 |
| RRIRSRPPRLPRPRPRPENIPRP | -0.278 |
| RRIRCRPPRLPRPRPRPLEIPRP | -0.164 |
| RRIRKRPPRLPRPRPRPPLDPRP | 0.809 |
| RRIRVRPPRLPRPRPRPAEIPRP | -0.0984 |
| RRIRPRPPRLPRPRPRPIGDPRP | -0.0205 |
| RRIRVRPPRLPRPRPRPWWVPRP | 0.00127 |
| RRIRYRPPRLPRPRPRPIENPRP | -0.0122 |
| RRIRNRPPRLPRPRPRPINVPRP | -0.0327 |
| RRIRMRPPRLPRPRPRPQIFPRP | -0.0615 |
| RRIRERPPRLPRPRPRPQFRPRP | -0.00151 |
| RRIRPRPPRLPRPRPRPALCPRP | 0.371 |
| RRIRSRPPRLPRPRPRPYGKPRP | -0.0603 |
| RRIRHRPPRLPRPRPRPDSLPRP | -0.0392 |
| RRIRLRPPRLPRPRPRPANKPRP | -0.0711 |
| RRIRCRPPRLPRPRPRPQAPPRP | 0.211 |
| RRIRQRPPRLPRPRPRPTIFPRP | -0.0347 |
| RRIRIRPPRLPRPRPRPPTAPRP | 0.335 |
| RRIRHRPPRLPRPRPRPQPLPRP | -0.0863 |
